Values quoted from earlier work as cited in article PMC5477003.

Molecular target: integrin αIIbβ3 (Homo sapiens) (UniProt P08514)

Kd: 30 nM
Substance: CD40L (from UniProt P29965)
